{
  "source": "paper PMC9181642",
  "data": [
    {"biological_target": "insulin receptor (mouse (endogenous in 3T3-L1))", "sequence (P15208 28-1372)": "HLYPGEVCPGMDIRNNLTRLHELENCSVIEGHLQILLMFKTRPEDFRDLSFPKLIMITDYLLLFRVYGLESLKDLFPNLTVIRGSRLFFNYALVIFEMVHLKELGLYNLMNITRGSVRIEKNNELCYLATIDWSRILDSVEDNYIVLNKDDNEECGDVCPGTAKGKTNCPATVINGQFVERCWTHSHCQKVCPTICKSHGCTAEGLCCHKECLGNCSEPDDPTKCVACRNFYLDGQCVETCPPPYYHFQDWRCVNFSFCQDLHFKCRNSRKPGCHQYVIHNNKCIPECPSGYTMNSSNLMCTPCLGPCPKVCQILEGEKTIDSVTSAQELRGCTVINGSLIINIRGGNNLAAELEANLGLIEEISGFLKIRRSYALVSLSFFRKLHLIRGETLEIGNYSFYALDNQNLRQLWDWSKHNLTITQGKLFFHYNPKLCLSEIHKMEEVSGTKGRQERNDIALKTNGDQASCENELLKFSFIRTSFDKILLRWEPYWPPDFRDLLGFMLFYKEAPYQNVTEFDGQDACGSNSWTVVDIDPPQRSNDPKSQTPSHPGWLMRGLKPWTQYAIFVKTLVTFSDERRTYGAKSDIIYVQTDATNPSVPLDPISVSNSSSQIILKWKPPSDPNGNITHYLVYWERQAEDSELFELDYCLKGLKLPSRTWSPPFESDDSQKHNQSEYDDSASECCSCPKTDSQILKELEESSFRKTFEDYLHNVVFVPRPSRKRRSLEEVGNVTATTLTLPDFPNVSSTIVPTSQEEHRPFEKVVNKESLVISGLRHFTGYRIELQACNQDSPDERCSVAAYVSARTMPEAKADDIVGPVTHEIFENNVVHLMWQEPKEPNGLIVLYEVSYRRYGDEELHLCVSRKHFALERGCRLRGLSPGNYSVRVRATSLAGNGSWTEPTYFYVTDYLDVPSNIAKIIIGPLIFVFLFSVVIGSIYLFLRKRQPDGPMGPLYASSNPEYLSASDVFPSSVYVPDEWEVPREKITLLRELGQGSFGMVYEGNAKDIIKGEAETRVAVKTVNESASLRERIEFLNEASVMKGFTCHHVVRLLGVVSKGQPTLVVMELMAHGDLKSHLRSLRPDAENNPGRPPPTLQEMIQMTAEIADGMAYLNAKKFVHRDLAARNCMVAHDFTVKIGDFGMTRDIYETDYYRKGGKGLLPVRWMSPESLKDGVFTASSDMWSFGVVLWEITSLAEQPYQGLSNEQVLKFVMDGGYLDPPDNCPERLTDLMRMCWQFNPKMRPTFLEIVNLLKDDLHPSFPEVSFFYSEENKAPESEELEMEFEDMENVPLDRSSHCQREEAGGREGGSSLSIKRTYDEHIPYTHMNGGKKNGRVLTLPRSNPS", "experiment": "co-IP; lysates of differentiated, serum-deprived 3T3-L1 adipocytes, untreated or treated with 100 nM Ang II for 60 min (for PKCβII also 10 µM DuP 753 for 30 min before Ang II); lysis in 50 mM Tris-HCl, 150 mM NaCl, 1% Nonidet P-40, 10% glycerol, 2 mM EDTA, pH 7.4; IR precipitated with anti-IR-β polyclonal antibody and protein A/G PLUS-Agarose; blots probed with anti-PKCα, -βI, -βII or -δ and quantified by densitometry", "units": {"fold increase of the association with Ang II over control cells": "fold"}, "values": [
      {"substance": "PKCδ (from UniProt P28867 1-674) (enzyme)", "fold increase of the association with Ang II over control cells": 1.5},
      {"substance": "PKCα (from UniProt P20444 1-672) (enzyme)", "fold increase of the association with Ang II over control cells": 2},
      {"substance": "PKCβII (from UniProt P68404-2 1-673) (enzyme)", "fold increase of the association with Ang II over control cells": 4},
      {"substance": "PKCβI (from UniProt P68404 1-671) (enzyme)", "fold increase of the association with Ang II over control cells": 1.2}
    ]}
  ]
}
